We go through 18 sequences from a protein production outcome set (Wang et al. 2014).

The series can be described thus: label from the status in PepcDB records.
Take “MRGEGRRIGAMSETPEIPGSGYRTGEALLRAGDIAGAITAFRGHLAASPDDALGWFALGSALFFAQRWEETRAAYARAAAIDRAYTLGGLLRPGDVETALDPAPFLGQLPEMSMIIPPAHSGPLAVVGCDSAYFLDFGAALALSMDKAAPGWGLHLHLIAPTTPALDLLERLIGGLRAITLSFSLEHLPPALRAPEAQRTYLACLRFMRLPAILDEQQARAGRVPVVVLDADSLMCKPLLGPDDWRPPGPEGGWRAGWDVALKDSGLFPLGPLWRYSASCVGLAPTDEARAFAAHVATLLARQALTVNGLGWMIDQFALAVAIAARQTQSPAFRLGDWPDRLYRLYENPPDAALWSFCSQSKYDDRLYRDMVRLLLAEMG”: the protein production entry is “failed”.

Take “MTPASAVPAHPCPPGPNALRRRLLQAALSTGVLASIGTAAPAAASAHATSTPSKPMDLYAYVGSRTTRERNARGDGISVFRVDTQTGGLAPVQLVKDLVNPSFLALNPAGDRLYTVHGDLADISAFAVDRASGRLSFINRQSTQGKNPVHLALDPSGRFVVVTNHIGASLAVLPLAADGALGEVTQLVKLDGPIGPHRIEQKQAKPHFNRFDPAGRFVIVPDKGLDRTFAFRFAEGRLTPATPSFVSAREGAGPRHVAFRPDGRVAYVVNELDSTVTTYGYDAGTATLTPLQVLPSLPDTFTGNSRASEIKVDAAGRFVYASNRGHDSIAVFRIDAASGLLRFVAAEPSLGRTPRFFTIAPGGRFLYALNEDSDSIVAFAIDPHTGRLHPTGTRAQSGSPVCMVFSTPAA”: the protein production result is reported as “failed”.

For “MEVLLDVKERMSILKNFYDEVRVVDPINNIVFSDDFNLKINNKFNEKDCSLSNCYDVWGKKSMCSTCISKKAYLKNDTFIKLEYNKNHVFLVIASPIEFNENKYVVEILKDITNNGSIVDGSGEGNYLDLTMKKMGENLIKDYLTGVYNKRYIDQRFSKEAHRNLKESIPTTVIMTDIDSFKKVNDTYGHLVGDKILRDFAKVLNNNIRENSDWIGRYGGEEFIIVLNNTNLKNGVKVAEKLRKIIEKMSFDYGDLSLKITSSFGVCEVSEKEDPFDTIKNADEKLYMAKMTGRNKTVF”, the protein production entry was “failed”.

Consider “MFVRRFEEVLALPTAMTALLGCQLLGELIVRALHLPIPGPVLGLLLLLAWLLLGTTVTLPVSSSLPEVARGLLNHMSLLFIPAGVGIILHGQTLADQWLPISVSLFGSTALALIATALTFRAVCKIMERSKAKKEGGR”, for which the protein production result is “failed”.

As to “ILWSQFLKFKEMELPAKEADKNRSKGIYQSLEGAVQAGQLKVPPGYHPLDVEKEWGKLHVAILEREKQLRSEFERLECLQRIVTKLQMEAGLCEEQLHQADALLQSDIRLLAAGKVPQRAGEVERDLDKADSMIRLLFNDVQTLKDGRHPQGEQMYRRVYRLHERLVAIRTEYNLRLK”, the protein production entry was “failed”.

As to “MTFLDKIKQGCLDGWAKYKILPSLTAAQTILESGWGKHAPHNALFGIKADSSWTGKSFDTKTQEEYQAGVVTDIVDRFRAYDSWTDSIIDHGKFLNDNPRYQAVIGETDYKKACHAIKDAGYATASGYAELLIQLIEENDLQEWDEEAIVRKEKQMISSQCREVIEFFINLVNAGVGVDKDGFAGWQCTDVPCYAAKHWFGVDLWGNAIDLLDSAAAVGWEVHRMPTDANPQTGAFFVQSVPYHQFGHTGVVIEDSDGYTMRTIEQNIDGNPDALYVGAPARFNTRDFTGVTGWFYPPYQGDIVTQPVSTEPQTSDTIVETAKTGTFTLDVAEINIRRWPSLTSEVVGSYKQGDTISFDSEGYANGYYWISYVGGSGMRNYTAIGITDKDGNIISLWGKLNLEHHHHHH”, the protein production result is reported as “not failed”.

Regarding “MGHHHHHHSHPQSAAKPGLHFIDQHRAALIARVTNVEWLLDALYGKVLTDEQYQAVRAEPTNPSKMRKLFSFTPAWNWTCKDLLLQALRESQSYLVEDLERS”, the protein production result was “failed”.

Turning to “MPINTLESSPWRGSRHDFCRERLEPLLDQAGIRINGDRPWDIRVHDPAFFRRMFADASLGLGESYVDGWWDCDRIDEFICRIIRAGLADRFRSWRDAVAALQARLFNLQHAARAFHVGQRHYDIGNDLYGCMLDRRMIYSCGYWKDATTLDEAQEAKLDLVFRKIGLEPGMRVLDIGCGWGGAARFAAEKYGVEVYGVTVSAEQARYAREICQGLPVTIELKDYRDIEGHFDRAYSLGMFEHVGCKNYGTYMKLVADRLPDDGLFLLHTIGINTSDNHGNPWVDRYIFPNSMLPSIAQIGTATENRLVMEDWQNFGPDYDRTLLTWYDRFEWHWPSLRPRYGDRFYRMWRFYLLSFAGAFRARYIQLWQIVLSPKGLTRRYDAPR”, the protein production result is reported as “failed”.

As for “MSLARCERLRGAALRDVLGRAQGVLFDCDGVLWNGERAVPGAPELLERLARAGKAALFVSNNSRRARPELALRFARLGFGGLRAEQLFSSALCAARLLRQRLPGPPDAPGAVFVLGGEGLRAELRAAGLRLAGDPSAGDGAAPRVRAVLVGYDEHFSFAKLREACAHLRDPECLLVATDRDPWHPLSDGSRTPGTGSLAAAVETASGRQALVVGKPSPYMFECITENFSIDPARTLMVGDRLETDILFGHRCGMTTVLTLTGVSRLEEAQAYLAAGQHDLVPHYYVESIADLTEGLEDEGHHHHHH”, the protein production entry is listed as “not failed”.

For the sequence “SCEKENIGIEVTPVNAKFIITPVVIDATTGTDVTQSAEISFSKGNGTYEGTPELASESININAKYKGMTGSASVTIPALKAGQFGAKEVTIILSENFFAQEESSNSQIETTKHSGFKNNTSDYWYYITVTYTKKEGSEVIKNDYEGDDSEIKNIIDAYNKGVREDKVTLNDVQVLAHSRFSVFVDYMKTTSVYQIIEKSPKRDGNPVASFTVDSYNTIVSPKNEQIPGHGHAPSHGHGHGHGDDSNAGGGIIIAD”, the protein production result is recorded as “not failed”.

On to “MFNKKKTIASLIVLSSLASQIALTPISALADTHDTNNIALLQNTNENVPYKYTSTLTFPTLTNQTQEDYKLEIKLALPSGMNYTDLQVSVGGEDITNQVGTTSFDNSTNTVTFKFDKVTSWDSLSKAKVKFDWKTSYSGEGGEAKIDSLVATATATSEDKAGNKSTSTGSLKPKDISAPVVKAEETEITYSPGSDVTEEQFLTDIHASVTDNYDSTISLTSNFTSAVNLAVSGDYSVNVQATDKAGNVSNTLNVTVHVSTPAPVAGANITVNHLDSNGNKIAESDTLTGVVNSNYQSESKKITGYTLETTPTNATGTFTDTPQTVDYIYKKDTVTPTPITVNPVEPVKPVNPVVNKPVTVKPANDNTNPSTSNSVEKTTYSSLPTTGDTDQSKSSTIFGALLLLISAPLLLFKKK”, for which the protein production entry is on record as “failed”.

As for “MEPSSLVLALEQTSEVLGKEPIVPFAILLVVLLVVPILFERLRLPGIVGLVLSGLVLGPSGWNLFHTKSPMISLLSDIGLVYLMFVAGLEVDLELWRRRQRRALGFGCVSFTIPLLIGTLVGRFFHFGWNTSVLIGSLLTSYSLLAYPIINRLGVISNQAVTITIGATVFTDISALIVLAICIPAFQMGMSNIYQILSLLGWLIIYSIVILVGFDWAGREFFRRSGDDEGNKFLFVLLTVFLAVVVAQLIGIEKILGAFLAGLAVNEAVGEGPVKEKIVFVGSVLFIPIFFINLGLLIDLPGLVNSLFTLQLTSLIVISLVASKFIAAWLAKVFYGYSWQEMLTMWSLSIPQVGTTLAATFVGYHTGLLSSAVLTSVVILMLITATLGPLITSRTARALTTVSITESVDANLPEPQVIETQNGNFTIVVPIYNPHTQQYLVEMAALLAHQAQGRIIPLTIATAAAHMDAPQLESTLQRSERLLAKATSQSQALGVAASPLLRIDDASAPGISRAAREQKANLIVMGWGKRTGLRARLFGNVIDNVLWSSHCPVAVTRLVESPKKIQRILVPVENLITPTLQPVQFAQMLAEANQAQVTVLNVCDRRTSSSKIASRRSQLALLVSKLALPNSPEVQIIAHENAAQAILQAARLYDLVVLPFIRNRTSPGGLALSDVTTQLASQLTCSIVMLGEPQRLQTGNITSVAPNTTTAV”, the protein production result was “failed”.

Consider “MTTFDAKKLKKEYLDWYNQILEFSNLSNNSVKIDTPFKDNSLDNLKIYALYDQSRDMITLTDDGYTIFGLENNGVSINKFKKRKKIFEEHLSAYGIKYNDKTHEIFVQTNFKNFNKSKHNLLQCLIFVNDMYLLSNPKSQNIFTEDVANKLDEHNIYYGRDIPIIGSSGVVHNFDFFISAKKNQKEKFINVFSNPNNSMIIKSKITDAMQAKKIKRHRQNEFIFILNDSKKEINEHNKNLLHENYISTIDYSELDEKIGLLI”, for which the protein production result is “failed”.

Take “MTSTETPLNSPAAAADRRRWFALAIVMTAAFMDLVDVTIVNIAIPSIQRDAGASWGQIQWITAGYALAFAAGLITGGRLGDIHGRKRLFLIGIGGFTLASALCGFAANPEMLVASRILQGGMAAMMVPQVLSIVHATFPAHERGKVFGLFGAIVGLGAVSGPLLGALLTEWNLFGLEWRPIFLINLPVGVAGLILGRRFITESKAPRALKLDLVGVALVTLGLLMLLYPLTRGRELGWPLWGHVSMAGALVVFAALVAYERRKTARDGSPLVELSLFKVKSFAAGIAVQTVFGIALGIFFLVWTLYMQMGLGWSALRAGLTGVPFSIAVSAAAGMSVQLLVPRFGRKVLQAGALLMALGVLLYIWESDRYGMAIASWQMALPLVVMGAGMGFIVAPLTDAVLSEVPREHSGSASGLINTVQQMGNALGLGLVSVVFFGEIGDRLTRAQVGPAFAHAFQHALGWVAVVLAVIFLLMFALPKRPAQHVEGAGAADTLGEKEPVLVP”: the protein production result was “failed”.

For “MSLSQRTLLLLSQDNAHYERLLKAAHLPHLRILRADNQSDAEKLIGEAHILMAEPARAKPLLAKANKLSWFQSTYAGVDVLLDARCRRDYQLTNVRGIFGPLMSEYVFGHLLSLMRQLPLYREQQKQRLWQSHPYQGLKGRTLLILGTGSIGQHIAHTGKHFGMKVLGVSRSGRERAGFDQVYQLPALNKMLAQADVIVSVLPATRETHHLFTASRFEHCKPGAILFNVGRGNAINEGDLLTALRTGKLGMAVLDVFEQEPLPADSPLWGQPNLIITPHNSAYSFPDDVAQIFVRNYIRFIDGQPLDGKIDFDKGYEGHHHHHH”, the protein production result was “not failed”.

“MSLIVSTIASHSSLQILLGAKKEGFKTRLYVSPKRRPFYSSLPIVDDLVVAEEMTSILNDDGIVVPHGSFVAYLGIEAIEKAKARFFGNRRFLKWETTFELQDKALEGAGIPRVEVVEPEDAKPDELYFVRIEGPRGGSGHFIVEGSELEERLSTLEEPYRVERFIPGVYLYVHFFYSPILERLELLGVDERVLIADGNARWPVKPLPYTIVGNRAIALRESLLPQLYDYGLAFVRTMRELEPPGVIGPFALHFAYDGSFKAIGIASRIDGGSNADHWYSELYWGERLSMGRRIARELRLAEEEDRLEEVVTEGHHHHHH”: the protein production entry was “not failed”.

For the sequence “MRVHASSPDNKLQVFAIAGTKAILLAMNMDDSLLQGFHGFAFRRRVANGQWEWLTGLKVFVDVFPEGGPVIKKGKVGRFPTNEHPIQSFLWSDYRASPGTKYEFEISAMFGPIAKLEAYYAATLAITTEQEDDGKHGIWFNLGAIASQAFAEKFGNKPLSDADYNDPDNEEVAFLSRGLLEACIEFIRETPAGDALRIVAYEFTFKRILLELKAALERGVDVRIVYHATTANEKAIADAKLPENSKGVQILFKRTRPQTPHNKFIVRLKKGKTPVSVWTGSTNFTPSGFLGQTNVGHKVTDGDIAKIYLQLWEGLKADPDDFDATQAAMALTPNPANVVGTGTTLVFSPRPSPKMLDWYGHRAADAVNAVMFTAAFKVDERILSALADTDTSMRFILLEQPPSAEVQAARRANPADLELSYGAILGKTKMLTEERTGRDATGKKVTKIVPIPNFKIEKWFLKEELERQSGDGFVFYVHTKFLLVDPFSDDPLVCTGSANFSGASLTSNDENMLLIRGDTRVADIYLTEYDRVFRHFYSRDVINDIAKKGGPVNVGKLDPTDKWWQPYYDAKLAKSHKRRMFFEDPKKHWIESATQDGNVFAKEKPLKKPQ”, the protein production result is listed as “failed”.

Consider “MNIWIRGGTSDANTISKEIKRNFKDSFLILTTTTDFGGKIAENFADFVISEKMNYDNLKKTLVNKKIDVFIDATHPFATHASETGMKISKELNIPYIRYERPVEEFKDVFYVENFEEAAKLALKISKKNIFYMSGIKNLKTVSEIIPIEKLIVRILPTSVPEALKILPSKNIVAMQGVFSENLNKDLITDYNCDVIITKDSGKSGGLYEKVSGAVLAGAKPIIIKRPEINYPLKFEKIDELVNYLKN”, for which the protein production result is on record as “failed”.
